Data taken from the domain aggregation screens of Martell et al. (2025).

Experiment: soluble fraction after stress (log2 fold change); higher = more stays soluble; pooled small domains, quantitative proteomics
Settings: stress: pH 4
Summary of the method: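 Pooled custom libraries of small protein domains were subjected to pH 4 and measured by high-throughput quantitative proteomics. The log2 fold change in soluble amount per domain is reported, higher values meaning more remained soluble. This is used as a measure of aggregation propensity.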

Row | Sequence | soluble fraction (log2)
1 | HMNNTIKFSVDENNSGKRLDVYLTENINHLTRSFLKKLIEKEQVKLNKKVLTSPATKVKTKDQITINIIE | -0.26
2 | HMNNWYESSIKSLVEEYFREHGFSVVFDSSEFWDVFIEKYHKQIPSSQIALFDQVAAEARSYAFNKK | -0.545
3 | HMNPETLTNGSVVKMSKANLSDELIIDMINNSPARFDLSSGALRSLEGEGVSKAVIESMKRATSG | 0.0233
4 | HMNPETLTNSSVIKMSKANLSDELITDMILNSPVKFDLSAGAIKTLESEGVTPAVLESMKNAASK | 0.0677
5 | HMNPFTHEEINLMSIYNAAGTREGLIAALTEMWGYLDAEETELRELADSALAKLRGITDAEYAALELE | -2.05
6 | HMNPGAYQVKAGEGLIGLSRRYNVPVDVLASVNNLNTTSSLRVGQTITIPTAAQVNRITQQAQ | 0.254
7 | HMNPGHAERGKEIVEVFLRNNGELSMREIAEKSNITITQARRRVNKLLDQGIVEATAPVQSRNRKYRIK | 0.0708
8 | HMNPIEAQIEELKNKDQKTAYQALKHLLAISETRAEVSYYFDRFVALLQDPQSYVRTRGLLLIGA | 0.0533
9 | HMNPLLSAYLAEVERGLQGLTAGRRRLVLRELEAHLLDEAEARGLLTEEDMRALLMEKEPPERLAQEIAQ | -0.925
10 | HMNPMLEPAGEIRLSDGVLLRWQSERLPGDDTVRGPGSLYELGLYRVKVRVSAPQQGVRESSVELAGWRQV | -0.212
11 | HMNPMRYLVVPSQETETWKEYLVSKEWLERKYRIETEGDNRAIPLSNLFPKIVPIELSNLEIIEKEAFS | -1.09
12 | HMNPNEVQIPDLVNKTEDEAEQILKDLKLKLVVKSEEYNENIEKGKIISQDPPYQENYTIKEHSEISIVIS | -0.415
13 | HMNPSRPASKEELLGLFEHLERALDAVTFFRPAEKKPVVVQTLRAMLTKASFTEQDIRTMRGVIAALEN | -0.986
14 | HMNPYQDSILLWKSFDTPLTNEDFMGLSKEELRIARNEIYAAYGRIFTSQDLIDYFNSKPWYQGTTPA | -0.883
15 | HMNQDQDLSRIKGIGPEMVDRLHAQGVETLEQIAAMQMEQLKKLDQQISGNGKAVREQWAEQAKQLLTT | -0.331
16 | HMNQEFRMPNAIKGVELSEENKQQLTQGEKVFLEGMTSAKGSLFDAYVYIDQEKKTLAFDFPEK | -0.792
17 | HMNQKTQMTKQILAESLKKLMLHHSFEKITIKDITDAAGFIRPTFYNHFKDKYDLVEWIFTEEI | -0.336
18 | HMNQKVRQLLSQAQAEMERKNYKQAIKLLDQALAIEPHSGELHFMKGYAWMSMGEFEKALESLYEARNYA | -0.754
19 | HMNQPRQRKVIFELIDERNALERVLMHFAHLEKQVEKIDERKYQVTLYYDKEDETEILIRVLSFG | -1.16
20 | HMNQTEKSKITHNELLKAAHSLFIEQGFNHTTITDIVTRAGYSTGIFYKHYKTKTDILVELWTNYIE | -1.28
21 | HMNQWQLLSEDGAILGTRVLYHPHETEQPFTRSLSGVKIPAHVQSVTIRAGDLVHGFGGREIQMQLPPIV | 0.0124
22 | HMNREENIQIGRDLLERELRKQGMDLQENLRQEVLLDGAKKLGFNNTDDLLAAIGDLKVTPAMFIGKIA | -0.168
23 | HMNREMLVHAIGQLKEKYASALELKYWHGFTEREIAAFLNISEKAANSRLVRGRVMLRKLLE | 0.139
24 | HMNREYELTAEESGQRLDKYLAGEMTDLSRSRIKELVQAGEILVNGKKSKVSYKVQKDDLIQVIVLPLE | -0.0759
25 | HMNRITEFVVPEGTKKIRADKLLAESFPDHSRSDFHRAFDASLVRLEGQPISKNRKISQGDVLVFEMPEI | -0.468

Row | Sequence | soluble fraction (log2)
26 | HMNRPQDLGEPYDGQFREHPEAWAFYAAQSPSYRRSASWWVLGAKQEVTRQRRLAALIDASAQGTRIPALT | -0.0491
27 | HMNRREFQFSEGSSNKFWSIELRDQSFIVHYGKIGTNGQAQEKTFATADAAKKEHDKLIAEKTKKGYVEVQ | -0.691
28 | HMNRTKYYDFEGHPAKVVRLTLPVYLNKIGDEVVVYDSQKFAREASPISESQYNRMVAEIFQP | -0.0162
29 | HMNSEAVQNVIDKISALPDDITAKAKSQIEEARAAYEALSDSEKARVTNYSTLVAAEKKLASVVKD | 0.121
30 | HMNSEERVLDTASKWLVKLDEGLDESEAQVLKVWLATPLHRDTFLEMVALWDKMSVLNELADIV | -1.94
31 | HMNSISDSELKALIKNNYLKFLKRIASDEEIEYHFNQIKNKTILLDELDSIFQNSQEYKDLVEHNNKIQN | -0.809
32 | HMNSKQELAYQTIRARIVDGSYGPGYRIVIDEVARELGVSPIPVREAVRRLEAEGLITYTRHAGARVVA | -0.273
33 | HMNSLQLGSRGPTVSALQAKLNTMLVPSPRLVADGSFGPKTAQAVKAFQQMKRLVADGVVGPKTAAALGLS | 0.281
34 | HMNSLQNNLKQARTRVGLTQGVLASQAGISRQAYSTLESGSANPSTEVALRLAQALQERVELLFYLPER | -0.609
35 | HMNSNKFANAAAVAVAEKPADSYNPLFIYGPSGVGKTHLLYAIANEIHKHHPDYNIVYIKGDQFTNELIN | 0.201
36 | HMNSNLSLTSYEEKIFFLLEKEKNLDELILESSFKAGEILSILMDLEIKHAIVSIPGGKYRRK | -1.32
37 | HMNSNQESFENWLSANSWYNKDRAMRVFADSLGQELRNSGVSFEKALTQISAEVRKEFSHKFQ | -0.213
38 | HMNSNSLSFSKFMQEVEAGRVIEVQIKGNDIQGELSDGSKFKTYSPNYPNLVDKLSENKVSIVATPL | 0.105
39 | HMNSNTIIFSQFLSEVDNGRVTQVQIQGNNIKGTLSNGKDFITYAPNDPNLIEKLTSKGVSISASPID | 0.217
40 | HMNSNTIIINDIMTKIGKEVKNFTEIYSIILKALAEHGEEYVRTNTEYALKNFTGNFDIFLEQLLLK | -0.219
41 | HMNSRAERKEAAKEAIRNLLREGMTFEELTGPWLEKRFAEEPFNRGARSWQMLISEIKEEPEFQHL | -0.916
42 | HMNSRQPEEEALFELLAKNPYSDEQLEEIRIAIGSGISYKDVLVIADIKNTAKQMKKLRLKFTKDTG | 0.118
43 | HMNSTEQQTERFLATLTSLGGNAGNQRLQEALGWQGSTYQRIKQHLLDEGRIRTGRGRGGSVALSEATAT | ≥ 0.43
44 | HMNSTGVYQRPDGFWEYRFTLSINGKKLPRRKSTDLMGNKLKTKREAIKAREEAIIALRTEKTI | 0.4
45 | HMNSTVKVPNVVGMSVPQAKALLEQNHLLVQGIREVSTDKAPAGIVINQLPYSDAEVKEERHIYLTVSKGK | 0.0926
46 | HMNSVKSPMPGTILGLKVSVGDTVKVGDELLVLESMKMENMINSPIDGTVSKILISEGDSVQHGQELII | 0.102
47 | HMNSVSARRSAAITAISTGRIHSQEDLVQALKKAGYPVTQATASRDIEEIGAVRIRNQKGEMVYAIS | 0.321
48 | HMNTEEITYSRFQQMLEAGEISQVSIESNRILILPSEETGIEKVLYTGIINDPGLVERLNSAGVEFRAPIE | -1.16
49 | HMNTEFDVPDVVGKTLDEAEFVLKGSNLKRGLIMPVDDPSKAPGTIVRQNPEAGAGNKIRVGDVVDLWVVG | 0.187
50 | HMNTELSPKVWDVVQEFILYRKEIKAPMTEHAVKLLIGQLQKLSSDPDEQIEILRQSIVNGWKGIFSLK | -0.992

Row | Sequence | soluble fraction (log2)
51 | HMNTGTTISYSDFRDRVASGTVKEVQISDDRITGVLKNDETFNTVPVGNDSGLTKLLDDNGVTYSGTP | 0.212
52 | HMNTIFSVNGPVVKVKDTKDFSMMEMVYVGEKKLIGEVIGITESFTTIQVYEVTTGLKVGEPVYTTGAPM | 0.166
53 | HMNTIIHPIRLAYVDSGSIKSMAEQAEIDVKILTSEANSQIFWAIGDEKQIDRLYNLISQVDIIQNK | -1.42
54 | HMNTKHVFIIEQDDEKKRLDIFLVEKLQDSRSFLKKGIVEGWVKVNESVVKPNYKLKQKDQITVIIPP | -0.396
55 | HMNTNDFTIGTRVRTTKKGNGSSDGTSNTARSGIEGTITRIIPEAKYPYLVSTTVPMGWYKKDALEK | 0.157
56 | HMNTPLYLKIREQIFDALRSGRWAANDPLPSETKLASEFEVSQGTIRKAIDDLVAQNILYRHQGRGTFIRR | 0.125
57 | HMNTSSVTVHYQDEAGKSLADTVTLTGKVGETYSSEQKKITGYNFKEVRGNPKGQFTTEAQTVTYVYTQAA | -0.195
58 | HMNTWVEIFRAEDQGQIRDASLVLLAVKVAHRVDMNSSSAPWSLMVPAQDQQRAHHELTTYWQENAH | -1.35
59 | HMNVAELIEGHEAEIAEVLKEFSLLYLMRLADELGEMTKSSSGNGPFQVLKGLVYEEIARRG | -0.416
60 | HMNVAVPTPADKRKVRVMKADINAKLRVNDANGAYAVYEELKEWVTLKGFTEWNDDLSKLSETMGSMKRKV | -0.0387
61 | HMNVDALVGQRGRVTQTFDPGLRLGRVAVGGDDWRAETTTDQPLREGDLVEVVSVESNTLIVRPIA | 0.0146
62 | HMNVDSLIGQTARVIVDINNNDSIGYALVGGQEWTARAENDNDIIPKDTLVEIVGVSGVKLIVRRKE | -0.0794
63 | HMNVDSLVGSEARVTAEIDNRKETGTAMVNGQEWTARAESDEEIYPVGTIVEIRKIQGVKLIVSTH | 0.18
64 | HMNVEATAETLLALLKKNGGSLPFGDKSDPEAIQSQLKMSKKTFKKAAGTLFKKKLVRIEDHGIFL | 0.0517
65 | HMNVEGEVVVPNVIGRTMKDVAVILSDLGLRMEAEGTGVAKSSQPQHGTSVKRGTVVQVRFEPLSVN | -0.201
66 | HMNVEKLREMYPEGTKIILQEMQGESRMAKGLKGTVTHVDDAGQIHMKWENGSSLVLNVEVDTFKKIE | -0.562
67 | HMNVEVDSIGDDDFLVKVSAGTSTEHRVTLTDAYWEQIWSSSLPKKEIISLSFAFLLEREPNSSIMRT | -0.937
68 | HMNVNALIGQEGIVIKEINSGSNKIGQVKISGDTWSAVTTNDFTNAIPVGSNVKILKIDGVNLIVEPVY | 0.207
69 | HMNVNVSFTQLRHKAEHAIQAKNWSEARNLLTLATLMRPTHRNVARRLKAVEQRNRLFRRLLLILTHRKV | -0.229
70 | HMNVPFGFDEVNGKLVKNEEEQAIISEIKSLKNKGLSLRKIAEALNGRGIATKNGKAWTAVQIQRIA | 0.22
71 | HMNVPLYIMIESAVEQRLLDGTYQVGKMIPTEFELMDEFSVSRETVRKAINLLVQRGKLEKKRGIGTFVAS | -0.26
72 | HMNVSDIENKLNEMLSPLEKKVMVLYLEGKSYVEIGELLGRHTKSVDNALQRVKRKLEIYLKNRK | 0.295
73 | HMNVTIGESIKNVINHYGTPIYSYNPNNQEKYYEFHTNKGVLVVTAIGKKNTGYVTRVSMTY | -0.175
74 | HMNVVDTGTDANYRVKISAVNLNMRLGPSTSYKSKGYITPGNYTIIKTSGDWGKVKETGYWVALKYTSKIN | 0.175
75 | HMNVVINNELVSLMVEAMKDGVSSKSIQEEFEGYKISGKTITKKVLTAHVNKALEVFADMQE | -0.477
